Experimental data taken from the supplement of paper PMC10567573.

B1: SNAP91 (parent)
chain: FATASAAVPVSTSKPSSDLLDLQP
B2: SPOPL (parent)
chain: AKREETKAMESQRAYRFVQGKDWG

Variants of: B1
Experiment: protein stability index of a GFP-peptide fusion (GPS, HEK-293T) (PSI 1-6); higher = more stable
Conditions: c terminus: a fixed tail appended
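Further: lentivirally expressed fusions sorted by FACS into six bins by GFP to DsRed ratio, PSI derived from sequencing read proportions per bin multiplied by bin number.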

Protein stability index: each site, then its substitutions
A2: R 3.46, W 2.96, L 3.75, Q 4.11, M 3.79, T 3.18, K 3.99, H 2.71, V 1.65, Y 3.77, N 3.85, C 3.09, S 4.01
K14: P 4.15, T 3.97, C 3.61, V 4.05, E 4.45, A 4.16, F 2.6, N 3.89, M 3.48, H 3.58
D21: H 3.27, I 2.93, W 1.78, K 3.41, S 3.25, F 2.52, P 3.79, G 4.09, C 2.91, N 3.59
V10: H 4.01, L 3.63, C 3.18, M 3.55, P 4.36, G 3.37
L22: P 4.4, M 3.87, R 4.14, Y 3.99, E 4.76, C 3.84, V 3.85, G 3.93, F 3.59, A 4.49, W 2.96
A4: E 4.57, V 3.9, S 3.8, F 2.06, Y 3.73, M 3.31, R 3.16, T 3.72, L 2.89
P24: K 4.34, C 3.56, V 3.41, L 3.1, T 3.88, M 3.52, H 3.74, G 3.63, Q 4.06, Y 3.27, W 2.35, A 3.94, R 3.71
A6: D 4.22, L 2.47, I 2.41, S 3.78, C 2.46, M 2.92, T 3.5, N 4.69, F 2.31, K 4.23, R 3.31
Q23: G 3.79, C 3.61, H 3.35, P 4.13, I 2.92, N 4.08, D 3.97, L 3.38, F 2.7, E 4.46, R 3.34, W 2.69, M 3.29, S 4.18
S5: K 4.11, W 3.73, L 2.28, C 3.02, M 2.83, H 3.33, I 2.8, V 3.21, A 3.46, G 3.54, E 4.02, P 3.54, D 4.17, Q 3.38, T 3.73
T3: G 2.65, A 2.8, Q 4.15, S 3.39, L 3.35, K 3.22, V 4.38, I 2.81, D 3.8, E 4.26
P15: G 3.97, V 3.14, N 3.85, D 4.17, K 3.57, W 2.19, M 3.17, A 3.28, Y 2.99, S 3.73
S17: V 3.47, P 3.79, F 2.51, E 4.13, R 3.25, Y 3.2, M 3.56, N 3.85, I 2.88, K 3.47, D 4.22, L 3.35, G 3.68
S11: N 3.76, A 3.44, Y 2.17, T 3.71, C 3.15, M 3.5, L 3.03, E 4.2, K 3.84, D 4.42, H 3.01, P 2.88
S16: C 3.36, M 3.43, F 2.99, D 4.24, H 3.71, W 1.54, G 3.57, Y 3.08, R 3.3, L 2.83, V 3.6
F1: V 4.54, R 4.99, I 4.5, E 5.69, A 4.84, P 4.84, Y 3.8, K 4.92, Q 5.06, S 4.99, H 5.52, G 4.89, D 5.71
S13: E 3.67, R 3.94, Y 3.36, N 3.66, K 3.72, L 3.09, C 2.57, G 3.95, M 3.67
D18: I 3.37, R 2.84, M 2.87, E 3.98, W 2.13, L 2.77, T 3.17, G 3.42, Q 3.19, A 3.44, Y 3.37, N 3.14, F 2.23, K 2.98
A7: T 3.24, H 3.24, I 3.14, S 3.55, E 4.4, R 3.63, L 2.93, F 3.89, P 3.66, Q 3.79, D 4.5
L19: H 4.26, K 3.79, Y 3.56, W 2.5, F 3.7, I 3.95, R 3.98, N 4.32, T 4.22, E 4.59, V 3.95, G 4.12, S 4.35
L20: K 4.33, Q 4.14, I 3.62, F 3.15, C 3.93, N 3.61, Y 3.74, A 4, S 4.29, V 4.12, W 2.97, H 3.9, D 4.48, R 4.09
P9: T 3.73, M 2.29, Q 3.31, H 3.46, D 3.78, G 2.3, N 3.75, E 3.99, R 3.05, L 1.92, K 3.23, A 2.96, V 2.24, I 1.87
T12: L 3.74, W 2.61, R 3.13, Y 3.28, K 3.61, S 4.49, G 3.91, V 3.73, H 4.3, A 4.36, Q 3.97, F 3.07, N 3.7, M 2.78, I 3.51
V8: W 1.88, L 3.37, G 4.52, M 3.02, P 4.07, H 4.27, A 3.58, S 3.87, N 4.32, Y 3.09, R 3.79, E 3.99, D 4.64

Variants of: B2
Experiment: as above
Conditions: c terminus: a fixed tail appended

Protein stability index of substitutions, site by site:
R3: D 3.67, K 3.38, L 3.31, G 3, E 4.03, F 2.87, A 3.49, C 2.26, N 2.91, H 2.45, M 3.32, I 3.36
K2: W 2.48, S 2.85, V 2.98, H 2.93, C 1.75, I 2.71, T 3.37, N 3.41, A 3.03, L 2.24, E 3.61, M 2.06, D 3.39, G 2.6, P 3.3, Y 2.74, Q 3.13, F 2.81, R 2.92
A1: H 3.61, Y 2.57, K 2.83, W 2.61, N 3.14, T 2.93, E 3.4, G 2.82, M 2.77, P 3.02, R 2.49, D 3.38, I 2.59, Q 4.09, F 3.61, S 2.81, L 2.55, V 2.29, C 2.14
